In the supplement of paper PMC9170038:

Legend:
[1] = system: K4 kissing-loop RNA reporter; assay: apparent KD of K4 kissing-loop reporter; higher = weaker reporter binding; conditions: Eterna round: R107;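 further: bound reporter read as fluorescence of individual clusters on recovered sequencing chips by microscopy, with normalized cluster intensities fitted with a binding model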
Procedure: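 RNA-MaP round R107: designed RNA switches with theophylline, tryptophan, arginine or FMN aptamers are transcribed on-chip within common flanks. They are titrated with a labelled K4 kissing-loop RNA reporter in RNA-MaP buffer (100 mM Tris pH 7.5, 80 mM KCl, 4 mM MgCl2), without ligand or with the indicated ligand. Median apparent KD per design.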

[2] = system: MS2 coat protein; assay: apparent KD of MS2 coat protein; designed switch direction (-1 OFF switch, 1 ON switch): -1; higher = weaker reporter binding
Procedure, shortened: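 For each design, the apparent KD is the median over clusters of curves fitted to normalised cluster fluorescence. Clusters held RNA switches with common flanks, transcribed on Illumina chips by stalled E. coli RNA polymerase. These were titrated with SNAP-549-labelled MS2 coat protein, doubling from 0.7 or 1.5 nM to 3 µM, without input, with 200 uM small-molecule ligand, or with an oligonucleotide input.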

[3] = input ligand: theophylline 20 uM
[4] = input ligand: tryptophan 2.4 mM
[5] = input ligand: microRNA oligo, concentration not stated
[6] = Eterna round: R95, input ligand: FMN 200 uM
[7] = Eterna round: R95, input ligand: microRNA oligo, concentration not stated
[8] = Eterna round: R95, input ligand: none

Sequence | apparent KD of K4 kissing-loop reporter ([1]; input ligand: FMN 200 uM) | apparent KD of K4 kissing-loop reporter ([1]; input ligand: arginine 13.2 mM) | apparent KD of K4 kissing-loop reporter ([1]; input ligand: none) | apparent KD of K4 kissing-loop reporter [1, 3] | apparent KD of K4 kissing-loop reporter [1, 4] | apparent KD of MS2 coat protein [2, 7] | further results
UAACUGCAGUGAUGUUGCAGAUGUCCUGACUAGGAUAUCAGGAAACUGAGAAGGAGUGCCUUCUAAACAUCACAGAAGGUGGACA [KL-SSFMN-A28] | 360 nM | 440 nM | 415 nM | 286 nM | 458 nM |  | 
GCAGACACGCAGUGAUGUUGCGAAACGGAAGGAGCGCGUGAAAACGCAGGUAGGUCGCCGACACAUAAAUUAUAAUUUUGUUUGC [Arginine A K4 14] | 253 nM | 214 nM | 246 nM | 237 nM | 205 nM |  | 
AUUAAUAACUGAGGAUAUCGUUUUACUGUAGUGAUGUUACAGAAAAUGCACAUUAUAAUUUCUAUUCGAGAAGGCAGAAUAAUUA [JR_ExcFMNB_Sub013] | 110 nM | 75.5 nM | 74.5 nM | 74.1 nM | 65.4 nM |  | 
GGAUAGGACGGAGGAUAUGGUAGUGAUGUUACCAAACUGGUUAAACAUGUCAGAAAACUGGCAUGACCAGAAGGUUGUCCUAUCG [FmnBX 27 G10+U75] | 98.2 nM | 69 nM | 94.5 nM | 44.4 nM | 73.3 nM |  | 
AAUAAGGUCGCCGAUACCAGCGCAGGCAGAGCAAAGCUCUGCCUGGUAGUGAUGUUACCGCGCCCUUGGCAGCGGUGGCACGACC [Omei KL Theo B SS C v5] | 64.8 nM | 27.1 nM | 71.3 nM | 71.7 nM | 85.9 nM |  | 
UUAGUGACAAGUCAGAUUCUGACAAUUGAUACCAGAUAGAAUUCUAUCCCUUGGCAGCAGUGAUGUUGUUGCAAAUAGUCACAUU [AK3 Exc Theophylline A] | 263 nM | 209 nM | 251 nM | 242 nM | 232 nM |  | 
GAUUCAGUGAUGUUGGAAGGCGAGCGGGAUACCAGCCGAGACUCAGGCCCUUGGCAGCCCACAUAUCCCAGGUAGAUAGUAGAUC [Same State - Theophylline A (Freestyle 8)] | 193 nM | 106 nM | 129 nM | 166 nM | 135 nM |  | 
UGGGAUGGGCGAGGAUAUGGUGAGGUGGCGGUUGUUAGUGAUGUUGGUGAUGCUAGUGAUGUUUGUCCAGAAGGCGCGGGAUUUU [BDazzled] | 218 nM | 104 nM | 171 nM | 179 nM | 168 nM |  | 
CCGUGGCCGACGGCCGCCACUCUUACCAUCCAGCGGAGUGAUGUUCCGCCCGAGUGAUGUUCGGAGAGGACCGGGUCUGUUGUAA [Exclusion Tryptophan B GF30] | 117 nM | 103 nM | 108 nM | 89.1 nM | 98.9 nM |  | 
AGACCCUGGUAGGAUACCAGCGGCAUGCAGUGCGAGAGAGCGUAGUGAUGUUACGAGACCCGCCCUUGGCAGCCUGGGAAUGUGU [theeternabot_exclusion_KL_Theo_B_50] | 90.1 nM | 67.8 nM | 79.8 nM | 75.5 nM | 72.6 nM |  | 
UGAGAUAUGAGGGAUACCAGCCAUAAGGAAAGUGUGAUGAGUGAUGUUCUGACAAGCCAAGGCCCUUGGCAGCUUUAAUAGCAUC [whbob_SS_Theo_B_th77] | 328 nM | 191 nM | 280 nM | 167 nM | 267 nM |  | 
AUGCGCGCGGCGGCCGCCACUCGCAUGAGAGUGAUGUUCUCGCCGGGCCCGCAAGGGCCCGGUGUGAGGACCGGGCCGGGCUGCG [#2 Same State - Tryptophan B Attempt #18 (HarryS)] | 632 nM | 0.441 nM | 257 nM | 193 nM | 136 nM |  | 
GGCCGGAAGGCGAGCGCUCCCACUCCGGAAGGAGCGCCCGUAAGGGCAGGUAGGUCGCCGGAGUGAUGUUCCGGUGGAGGGCUCG [#2 Exclusion - Arginine A Attempt #21 (Inspired by Omei)] | 165 nM | 106 nM | 180 nM | 302 nM | 186 nM |  | 
UAGCUCUACAGAAGGAGCGACGUUCUUAGACAGUGAUGUUGUCUAUAGUGAAUAUAGGAACGUCAGGUAGGUCGCUGUAGAGCUA [Arg B SS t11] | 213 nM | 160 nM | 200 nM | 189 nM | 164 nM |  | 
GUCAUCUAUCAUGGGAUAAACAUGAGGAUCACCCAUGUAUACAAGUUUUUUGCUCGUCUUAUAAUAAGAUAGAUGAC [Antenna 4 - Jieux - Sensor, turn-off variant 1] (Eterna round: R97, puzzle: Sensor, turn-off variant 1) |  |  |  |  |  |  | apparent KD of MS2 coat protein ([2]; input ligand: FMN 200 uM): 16.6 nM; apparent KD of MS2 coat protein ([2]; input ligand: none): 16.1 nM
CGUUCGCGUGUAGGAUAUGUGUCUGUGUCGGGCGCAGAAGGACAUGAGGAUCACCCAUGUCUGCGGGUGUGGGCGCUCUCUGCG [-29, -28 kcal A 14%] (Eterna round: R96, puzzle: Exclusion NG 1) |  |  |  |  |  |  | apparent KD of MS2 coat protein ([2]; input ligand: FMN 200 uM): 69.6 nM; apparent KD of MS2 coat protein [2, 5]: 18.2 nM; apparent KD of MS2 coat protein ([2]; input ligand: none): 26.9 nM
ACAUGAGGAUCACCCAUGUGAAAGAAAUGGCUGACUUUGAGCUAGGAUAUUUGUGCAUAUCAAACAAAGAAGGAGCAUUACUGG [Deportation 99 - Jieux - Exclusion NG 3] (Eterna round: R96, puzzle: Exclusion NG 3) |  |  |  |  |  |  | apparent KD of MS2 coat protein ([2]; input ligand: FMN 200 uM): 20.4 nM; apparent KD of MS2 coat protein [2, 5]: 16.9 nM; apparent KD of MS2 coat protein ([2]; input ligand: none): 20.6 nM

Sequence | apparent KD of K4 kissing-loop reporter ([1]; input ligand: FMN 200 uM) | apparent KD of K4 kissing-loop reporter ([1]; input ligand: arginine 13.2 mM) | apparent KD of K4 kissing-loop reporter ([1]; input ligand: none) | apparent KD of K4 kissing-loop reporter [1, 3] | apparent KD of K4 kissing-loop reporter [1, 4] | apparent KD of MS2 coat protein [2, 7] | further results
UGAUCUAGCGGAGGAUAUACAUGAGGAUCACCCAUGUAUAGGCUAUGACCGUAGUCGUGGCACGUGUAGAAGGCCGCUAGAUCU [JL ENG2 3.77] (Eterna round: R96, puzzle: Exclusion NG 2) |  |  |  |  |  |  | apparent KD of MS2 coat protein ([2]; input ligand: FMN 200 uM): 12.7 nM; apparent KD of MS2 coat protein [2, 5]: 8.1 nM; apparent KD of MS2 coat protein ([2]; input ligand: none): 12.8 nM
UAUUCUAGAUAGGAUAUACUUUUUUUUUUUUUCGUAGAAGGAUCUACAUGAGGAUCACCCAUGUUAACAGCAGU [JR_E6_Sub010] (puzzle: Exclusion 6) |  |  |  |  |  | 51.6 nM | apparent KD of MS2 coat protein [2, 6]: 66.5 nM; apparent KD of MS2 coat protein [2, 8]: 40.4 nM
GGUACACAUGAGGAUCACCCAUGUCAGGAUAUCUGGAUACUCUUUAUUUUAGAUAUCCAGAGAAGGGACGUGCC [Ex1-3: 9Z] (puzzle: Exclusion 1) |  |  |  |  |  | 29.7 nM | 
AGAUCUAGGACAGGAUAUAUAGAUGGCUUCAUCGAAGAUGAAGCCAUUACAUGAGGAUCACCCAUGUAGAAGGGUCCUAGAUCA [Omei Exc(NG) 2Av7] (Eterna round: R96, puzzle: Exclusion NG 2) |  |  |  |  |  |  | apparent KD of MS2 coat protein ([2]; input ligand: FMN 200 uM): 11.2 nM; apparent KD of MS2 coat protein [2, 5]: 14.3 nM; apparent KD of MS2 coat protein ([2]; input ligand: none): 16.1 nM
CCGCAAAUGGAGGAUAUCGUAUCGGAUACGAUACGAGAAGGCUAUACAUGAGGAUCACCCAUGUGUCCUAGCGG [Fiskers Ex 6 - 46] (puzzle: Exclusion 6) |  |  |  |  |  | 11.4 nM | 
GAGUAGGUAGGAUAUACGAUAAUAUAGGGUAGAUAUAUAACACAUGAGGAUCACCCAUGUAGAAGGACCAGGAG [Mat - Exclusion 2 - Mod of my Tesla design - D63] (puzzle: Exclusion 2) |  |  |  |  |  | 38.3 nM | apparent KD of MS2 coat protein [2, 6]: 115 nM; apparent KD of MS2 coat protein [2, 8]: 36.6 nM
GAAAAGGUAGGAUAUACGAAAAAAAAGGGUAGAUAAAAAACACAUGAGGAUCACCCAUGUAGAAGGACCAAAAG [salish99_ex2_r3_078] (puzzle: Exclusion 2) |  |  |  |  |  | 41.8 nM | apparent KD of MS2 coat protein [2, 6]: 101 nM; apparent KD of MS2 coat protein [2, 8]: 29.3 nM
AUCGGGUCAGGAUAUCAUAGGAGCUGAUAUCCUCGGCUCGGUGAGAAGGGACUUGAGGAUCACCCAAGUAGGGC [Ririonte] (Eterna round: R97, puzzle: Exclusion 4) |  |  |  |  |  |  | apparent KD of MS2 coat protein ([2]; input ligand: FMN 200 uM): 44.4 nM; apparent KD of MS2 coat protein ([2]; input ligand: none): 46.1 nM
UUUUAACAUGAGGAUCACCCAUGUGAGGAUAUCGAAAUUUAUAUUUAUAUUAAUUUAUCGAGAAGGCACAUUUU [JMF 88] (puzzle: Exclusion 1) |  |  |  |  |  | 166 nM | 
AUGUGCACGCUGCGGUCCUACAUGAGGAUCACCCAUGUGGUCUGGUGGCGUGGGUCACCGGACUUGGCUCGUCUUGC [salish99_S_TOV1_R5_058] (Eterna round: R97, puzzle: Sensor, turn-off variant 1) |  |  |  |  |  |  | apparent KD of MS2 coat protein ([2]; input ligand: FMN 200 uM): 21.4 nM; apparent KD of MS2 coat protein ([2]; input ligand: none): 21.2 nM
CAAAAGGUAGGAUAUUAUGCCUGUAACAUGAGGAUCACCCAUGUGGUCCGAGACGGAGUUUAAGAAGGACCGAAAA [Masomariat] (puzzle: Exclusion 5) |  |  |  |  |  | 169 nM | apparent KD of MS2 coat protein [2, 6]: 895 nM; apparent KD of MS2 coat protein [2, 8]: 190 nM
GGUGGACAUGAGGAUCACCCAUGUGAGGAUAUCGGCUGGCUACUCGCUGACGGCUGCUCGAGAAGGCGCAUUGU [Exclusion 1 V88] (puzzle: Exclusion 1) |  |  |  |  |  | 41.7 nM | 
AGUACUAUCACGAGAGUGAUAGUACAUUAAACUUGUGAGACAUGAGGAUCACCCAUGUCCUCAUGAGCUCGUCUUAA [Mat - Sensor v2 - var 2 - Mod - D185] (Eterna round: R96, puzzle: Sensor v2, turn-off variant 2) |  |  |  |  |  |  | apparent KD of MS2 coat protein ([2]; input ligand: FMN 200 uM): 299 nM; apparent KD of MS2 coat protein [2, 5]: 96.1 nM; apparent KD of MS2 coat protein ([2]; input ligand: none): 165 nM
AAGAAACAUGAGGAUCACCCAUGUGAGGAUAUGAAUAAGAAAAGAAAAGAAAGAAGAAUCAGAAGGCACAAAGG [salish99-ex1_r3_045] (puzzle: Exclusion 1) |  |  |  |  |  | 40.5 nM | apparent KD of MS2 coat protein [2, 6]: 49.5 nM; apparent KD of MS2 coat protein [2, 8]: 37.2 nM
CUAGUAUAUCAGGAUAUGAUUUUAUAUAUUGGAUCAGAAGGGAUGACAUGAGGAUCACCCAUGUUGAGGAGUGA [JR_Ex6_Sub039] (Eterna round: R97, puzzle: Exclusion 6) |  |  |  |  |  |  | apparent KD of MS2 coat protein ([2]; input ligand: FMN 200 uM): 257 nM; apparent KD of MS2 coat protein ([2]; input ligand: none): 103 nM
GGUUGGCGAGGAUAUACAUGAGGAUCACCCAUGUGAGAGAAACUAGUGAGGUCGAUUGGUAGAAGGCGCUGACG [Mat - Exclusion 3 - Mod of JL D81] (puzzle: Exclusion 3) |  |  |  |  |  | 204 nM | apparent KD of MS2 coat protein [2, 6]: 25.3 nM; apparent KD of MS2 coat protein [2, 8]: 129 nM
